Among the data in paper PMC7769916 (Cellular and molecular life sciences : CMLS, 2020) are loss of GAP activity towards Rap1b against wild type Plexin-B1 ICR, binding result and Kd values, retold here.

Assay [1] deals with Plexin-B1 ICD E1530R.E1533R (human) (UniProt O43157).
Assay [2] addresses Plexin-B1 ICD R1900E.R1904E (human) (UniProt O43157).
For assay [3], the target named is Plexin-B1 ICD FL [res. 1511-2135] (human, UniProt O43157 1511-2135). In words: MST.
The target in assay [4] is Plexin-B1 ICD E1530R.E1533R (human, UniProt O43157 1511-2135, E1530R | E1533R). Put plainly: MST.
Assay [5] addresses Plexin-B1 ICD R1900E.R1904E (human, UniProt O43157 1511-2135, R1900E | R1904E). In words: MST.

Sequence of Plexin-B1 ICD E1530R.E1533R (O43157 1511-2135 E1530R/E1533R): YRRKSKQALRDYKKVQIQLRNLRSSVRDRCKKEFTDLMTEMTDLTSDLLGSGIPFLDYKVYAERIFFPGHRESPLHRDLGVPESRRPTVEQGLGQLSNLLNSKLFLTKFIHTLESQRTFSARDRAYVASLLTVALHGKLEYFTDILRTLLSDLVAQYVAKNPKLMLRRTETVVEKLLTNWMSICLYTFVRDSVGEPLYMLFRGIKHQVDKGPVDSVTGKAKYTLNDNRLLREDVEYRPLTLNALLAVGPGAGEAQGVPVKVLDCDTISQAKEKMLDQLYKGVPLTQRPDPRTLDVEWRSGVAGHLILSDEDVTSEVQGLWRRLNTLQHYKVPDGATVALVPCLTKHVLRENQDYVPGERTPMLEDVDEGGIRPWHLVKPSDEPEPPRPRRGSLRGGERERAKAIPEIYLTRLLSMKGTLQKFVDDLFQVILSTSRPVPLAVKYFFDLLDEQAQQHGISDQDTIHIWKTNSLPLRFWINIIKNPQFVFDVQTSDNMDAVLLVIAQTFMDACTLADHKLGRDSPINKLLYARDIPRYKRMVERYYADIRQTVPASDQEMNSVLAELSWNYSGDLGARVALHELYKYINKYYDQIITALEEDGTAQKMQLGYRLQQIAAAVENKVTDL
Sequence of Plexin-B1 ICD E1530R.E1533R (human) (O43157 1511-2135 E1530R/E1533R): as above
Sequence of Plexin-B1 ICD FL [res. 1511-2135] (O43157 1511-2135): as the sequence (O43157 1511-2135 E1530R/E1533R) above, with R20E, R23E counted along it
Sequence of Plexin-B1 ICD R1900E.R1904E (O43157 1511-2135 R1900E/R1904E): as the sequence (O43157 1511-2135 E1530R/E1533R) above, with R20E, R23E, R390E, R394E counted along it
Sequence of Plexin-B1 ICD R1900E.R1904E (human) (O43157 1511-2135 R1900E/R1904E): as the sequence (O43157 1511-2135 E1530R/E1533R) above, with R20E, R23E, R390E, R394E counted along it

In the case of “Human Rap1b wild type [res. 1 to 184] (from UniProt P61224 1-184) (enzyme)”, the loss of GAP activity towards Rap1b against wild type Plexin-B1 ICR in assay [1] and in assay [2] was > 50% in each case.

B1: Rap1b G12V (constitutive active mutant) [res. 1 to 184] (enzyme, human, UniProt P61224 1-184, looked up)
chain: MREYKLVVLGSVGVGKSALTVQFVQGIFVEKYDPTIEDSYRKQVEVDAQQCMLEILDTAGTEQFTAMRDLYMKNGQGFALVYSITAQSTFNDLQDLREQILRVKDTDDVPMILVGNKCDLEDERVVGKEQGQNLARQWNNCAFLESSAKSKINVNEIFYDLVRQINRKTPVPGKARKKSSCQLL
In general, Kd refers to a measure of binding affinity in units of concentration. A lower Kd goes with a tighter complex. B1: the binding result in assay [3] is listed as “binds”. In addition, the Kd in assay [4] and in assay [5] was > 100 µM in each case.
